These results are taken from EP2644619A1 (Spiber Technologies AB, dated 2013).

In data set [1] the target is NT (wild type N-terminal fragment of Euprosthenops australis major spidroin 1) (Euprosthenops australis). Briefly: tryptophan fluorescence, 5 uM protein, between pH 7 and pH 6; the filing uses it as a probe of dimerisation.
Data set [2] concerns the molecule itself. As to the kind of experiment: comparative structural studies, pH lowered from 7 to 6 (self-association).

B1: NT (wild type N-terminal fragment of Euprosthenops australis major spidroin 1) (protein)
chain: GSGNSHTTPWTNPGLAENFMNSFMQGLSSMPGFTASQLDDMSTIAQSMVQSIQSLAAQGRTSPNKLQALNMAFASSMAEIAASEEGGGSLSTKTSSIASAMSNAFLQTTGVVNQPFINEITQLVSMFAQAGMNDVSA
B1: the red-shift in fluorescence emission in data set [1] worked out at 15 nm.

B2: NT^A72R (other)
chain: GSGNSHTTPWTNPGLAENFMNSFMQGLSSMPGFTASQLDDMSTIAQSMVQSIQSLAAQGRTSPNKLQALNMRFASSMAEIAASEEGGGSLSTKTSSIASAMSNAFLQTTGVVNQPFINEITQLVSMFAQAGMNDVSA
notes: also called mutated NT; mutant NT
Turning to B2, the binding result in data set [2] was “no binding”.
